*1 amine or outer side, *2 acyl side, *3 side chain or, on linkers, in order; H or OH if unused. Bridges are numbered along the chain shown (N, C = ends). Primed or numbered codes have the meaning given here. Where no end group is shown, it is not given here. Side-chain parts run from the residue outwards. [ ]: non-standard residue; d: D form. The star is where a group is joined. C20 diacid = O=C(O)CCCCCCCCCCCCCCCCCCC(=O)*; γGlu = O=C(O)[C@H](CCC(=O)[*:2])N[*:1]; βAsp = O=C(O)[C@H](CC(=O)[*:2])N[*:1]; Hyp = O=C(O)[C@@H]1C[C@@H](O)CN1; Cit = NC(=O)NCCC[C@H](N)C(=O)O; Orn = NCCC[C@H](N)C(=O)O; Dab = NCC[C@H](N)C(=O)O; Inp′ = not defined here; Trx′ = not defined here; AOC = not defined here; Dap = NC[C@H](N)C(=O)O; PEG = not defined here; AEEA = NCCOCCOCC(=O)O; Sar = CNCC(=O)O

B1: PD187 (peptide)
peptide: {C20 diacid-AEEA-AEEA}-KCNTATCATQRLADFLRHSSNNLKPILPPTNVGSNTX-NH2
modifications: disulfide 2-7 (inferred); not fully specified (residue 37); printed as KCNTATCATQRLADFLRHSSNNLKPILPPTNVGSNT-trans-Hyp-NH2
B2: PD189 (peptide)
peptide: {C20 diacid-Trx′-AEEA-AEEA}-KCNTATCATQRLADFLRHSSNNLKPILPPTNVGSNTP-NH2
modifications: disulfide 2-7 (inferred); reading uncertain; also: printed as N-terminal: 2*AEEA + Trx + C20 diacid; C-terminal NH2
B3: PD190 (peptide)
peptide: {C20 diacid-AEEA-AEEA-Trx′}-KCNTATCATQRLADFLRHSSNNLKPILPPTNVGSNTP-NH2
modifications: disulfide 2-7 (inferred); reading uncertain; also: printed as N-terminal: Trx + 2*AEEA + C20 diacid; C-terminal NH2

The target of this assay is T1, human amylin receptor (AMY3) on CHO-K1/Ga15/AMY3 cells (human, UniProt P30988 25-474; O60896 24-148).
T1 sequence (looked up) 1: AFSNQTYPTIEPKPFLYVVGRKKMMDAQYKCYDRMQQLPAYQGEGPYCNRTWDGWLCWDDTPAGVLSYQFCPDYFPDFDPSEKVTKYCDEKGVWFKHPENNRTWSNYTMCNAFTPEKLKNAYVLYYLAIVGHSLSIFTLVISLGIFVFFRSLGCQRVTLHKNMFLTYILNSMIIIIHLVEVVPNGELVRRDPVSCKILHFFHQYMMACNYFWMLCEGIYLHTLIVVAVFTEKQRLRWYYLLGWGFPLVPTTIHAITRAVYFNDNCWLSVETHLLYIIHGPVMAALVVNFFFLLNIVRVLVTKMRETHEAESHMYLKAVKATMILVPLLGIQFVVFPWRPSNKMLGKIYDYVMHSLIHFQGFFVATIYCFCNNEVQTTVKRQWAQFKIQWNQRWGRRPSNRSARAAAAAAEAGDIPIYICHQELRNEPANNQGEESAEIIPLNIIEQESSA
T1 sequence (looked up) 2: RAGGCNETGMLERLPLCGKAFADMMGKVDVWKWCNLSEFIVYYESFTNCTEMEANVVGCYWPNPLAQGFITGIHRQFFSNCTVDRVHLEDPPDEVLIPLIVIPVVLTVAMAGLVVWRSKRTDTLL
The assay can be described thus: cell-based or functional assay.
As for {C20 diacid-Trx′-AEEA-AEEA}-KCNTATCATQRLADFLRHSSNNLKPILPPTNVGSNT[Hyp]-NH2 (disulfide 2-7 (inferred); reading uncertain) [PD177], the “EC50, CRE-luciferase assay” value turned out to be 0.024 nM.

Consider {C20 diacid-γGlu}-KCNTATCATQRLADFLRHSSNNL[Dap]PILPPTNVGSNTP-NH2 (disulfide 2-7 (inferred)) [PD168], for which the “EC50, CRE-luciferase assay” value stood at 0.041 nM.

Turning to RCNTATCATQRLADFLRHSSNNLK([γGlu-C20 diacid])PILPPTNVGSNTP-NH2 (disulfide 2-7 (inferred)) [PD042], the “EC50, CRE-luciferase assay” value worked out at 0.111 nM.

Regarding B1, the “EC50, CRE-luciferase assay” value was 0.016 nM.

{C20 diacid-γGlu}-KCNTATCATQRLADFLRHSSNNLNPILPPTNVGSNTP-NH2 (disulfide 2-7 (inferred)) [PD165]: the “EC50, CRE-luciferase assay” value came to 0.05 nM.

Consider {C20 diacid-γGlu}-KCNTATCATQRLADFLRHSSNNL[Orn]PILPPTNVGSNTP-NH2 (disulfide 2-7 (inferred)) [PD170], for which the “EC50, CRE-luciferase assay” value was 0.041 nM.

Turning to {C20 diacid-AEEA-AEEA-γGlu}-KCNTATCATQRLADFLRHSSNNLKPILPPTNVGSNT[Hyp]-NH2 (disulfide 2-7 (inferred)) [PD176], the “EC50, CRE-luciferase assay” value came to 0.029 nM.

On to {C20 diacid-Inp′-AEEA-AEEA}-KCNTATCATQRLADFLRHSSNNLKPILPPTNVGSNT[Hyp]-NH2 (disulfide 2-7 (inferred)) [PD179], for which the “EC50, CRE-luciferase assay” value was found to be 0.017 nM.

As to {C20 diacid-γGlu}-KCNTATCATQRLADFLRHSSNNLPPILPPTNVGSNTP-NH2 (disulfide 2-7 (inferred)) [PD163], the “EC50, CRE-luciferase assay” value was 0.084 nM.

Take {C20 diacid-AEEA-AEEA-γGlu}-KCNTATCATQRLADFLRHSSNNLKPILPPTNVGSNTP-NH2 (disulfide 2-7 (inferred)) [PD188]: the “EC50, CRE-luciferase assay” value was determined as 0.025 nM.

In the case of {C20 diacid-γGlu}-KCNTATCATQRLADFLRHSSNNL[aK]PILPPTNVGSNTP-NH2 (disulfide 2-7 (inferred)) [PD167], the “EC50, CRE-luciferase assay” value is 0.05 nM.

{C20 diacid-AEEA-AEEA-Trx′}-KCNTATCATQRLADFLRHSSNNLKPILPPTNVGSNT[Hyp]-NH2 (disulfide 2-7 (inferred); reading uncertain) [PD178]: the “EC50, CRE-luciferase assay” value came to 0.017 nM.

In the case of {C20 diacid-γGlu}-KCNTATCATQRLADFLRHSSNNL[Trx′]PILPPTNVGSNTP-NH2 (disulfide 2-7 (inferred); reading uncertain) [PD173], the “EC50, CRE-luciferase assay” value is 0.064 nM.

Take {C20 diacid-PEG-PEG-PEG-PEG-PEG-PEG-PEG-PEG-γGlu}-KCNTATCATQRLADFLRHSSNNLKPILPPTNVGSNT[Hyp]-NH2 (disulfide 2-7 (inferred); reading uncertain) [PD186]: the “EC50, CRE-luciferase assay” value is 0.052 nM.

With {C20 diacid-AEEA-AEEA-Inp′}-KCNTATCATQRLADFLRHSSNNLKPILPPTNVGSNT[Hyp]-NH2 (disulfide 2-7 (inferred)) [PD180], the “EC50, CRE-luciferase assay” value came out at 0.016 nM.

Regarding RCNTATCATQRLAEFLRHSSK([AEEA-AEEA-γGlu-C20 diacid])NLGPILPPTNVGSNTP-NH2 (disulfide 2-7 (inferred)) [PD001], the “EC50, CRE-luciferase assay” value stood at 0.042 nM.

For {C20 diacid-AEEA-AEEA-βAsp}-KCNTATCATQRLADFLRHSSNNLKPILPPTNVGSNT[Hyp]-NH2 (disulfide 2-7 (inferred)) [PD184], the “EC50, CRE-luciferase assay” value came out at 0.037 nM.

For B2, the “EC50, CRE-luciferase assay” value came to 0.029 nM.

On to {C20 diacid-γGlu}-KCNTATCATQRLADFLRHSSNNL[Sar]PILPPTNVGSNTP-NH2 (disulfide 2-7 (inferred)) [PD172], for which the “EC50, CRE-luciferase assay” value is 0.075 nM.

Regarding RCNTATCATQRLAEFLRHSSNNLK([γGlu-C20 diacid])PILPPTNVGSGT[Hyp]-NH2 (disulfide 2-7 (inferred)) [PD041], the “EC50, CRE-luciferase assay” value turned out to be 0.259 nM.

For the molecule {C20 diacid-γGlu}-KCNTATCATQRLADFLRHSSNNL[Cit]PILPPTNVGSNTP-NH2 (disulfide 2-7 (inferred)) [PD171], the “EC50, CRE-luciferase assay” value was 0.053 nM.

As for {C20 diacid-γGlu}-KCNTATCATQRLADFLRHSSNNL[AOC]PILPPTNVGSNTP-NH2 (disulfide 2-7 (inferred); reading uncertain) [PD174], the “EC50, CRE-luciferase assay” value amounted to 0.046 nM.

As for {C20 diacid-γGlu}-KCNTATCATQRLADFLRHSSNNLHPILPPTNVGSNTP-NH2 (disulfide 2-7 (inferred)) [PD162], the “EC50, CRE-luciferase assay” value amounted to 0.035 nM.

{C20 diacid-γGlu}-KCNTATCATQRLADFLRHSSNNLSPILPPTNVGSNTP-NH2 (disulfide 2-7 (inferred)) [PD166]: the “EC50, CRE-luciferase assay” value was found to be 0.054 nM.

As to {C20 diacid-βAsp-AEEA-AEEA}-KCNTATCATQRLADFLRHSSNNLKPILPPTNVGSNT[Hyp]-NH2 (disulfide 2-7 (inferred)) [PD183], the “EC50, CRE-luciferase assay” value came out at 0.04 nM.

Regarding {C20 diacid-AEEA-AEEA}-DKCNTATCATQRLADFLRHSSNNLKPILPPTNVGSNT[Hyp]-NH2 (disulfide 3-8 (inferred)) [PD182], the “EC50, CRE-luciferase assay” value worked out at 0.034 nM.

On to {C20 diacid-γGlu}-KCNTATCATQRLADFLRHSSNNL[Dab]PILPPTNVGSNTP-NH2 (disulfide 2-7 (inferred)) [PD169], for which the “EC50, CRE-luciferase assay” value was 0.039 nM.

In the case of {C20 diacid-γGlu}-KCNTATCATQRLADFLRHSSNNLRPILPPTNVGSNTP-NH2 (disulfide 2-7 (inferred)) [PD161], the “EC50, CRE-luciferase assay” value amounted to 0.026 nM.

Turning to B3, the “EC50, CRE-luciferase assay” value is 0.017 nM.

Turning to {C20 diacid-γGlu}-KCNTATCATQRLADFLRHSSNNLKPILPPTNVGSNTP-NH2 (disulfide 2-7 (inferred)) [PD160], the “EC50, CRE-luciferase assay” value stood at 0.035 nM.

On to {C20 diacid}-D[AEEA][AEEA]KCNTATCATQRLADFLRHSSNNLKPILPPTNVGSNT[Hyp]-NH2 (disulfide 5-10 (inferred)) [PD181], for which the “EC50, CRE-luciferase assay” value turned out to be 0.022 nM.

{C20 diacid-γGlu}-KCNTATCATQRLADFLRHSSNNLDPILPPTNVGSNTP-NH2 (disulfide 2-7 (inferred)) [PD164]: the “EC50, CRE-luciferase assay” value came to 0.111 nM.

Source of the values: patent US20260115256A1 (HANGZHOU SCIWIND BIOSCIENCES, published 2026).
